Reference: the Immune Epitope Database (IEDB)

Assays:
HLA-A*30:02 = experiment: IEDB peptide-MHC binding, purified MHC/competitive/radioactivity; filed as Kd, often an IC50 or EC50 that approximates it; ≥ and ≤ were set here for values at or beyond the usual limits of such assays
HLA-A*01:01 [1] = experiment: as above
HLA-A*23:01 = experiment: as above
HLA-A*24:02 = experiment: as above
HLA-A*29:02 = experiment: as above
HLA-A*26:01 = experiment: as above
HLA-B*44:02 = experiment: as above
HLA-B*44:03 = experiment: as above
HLA-B*08:01 = experiment: as above
HLA-B*40:01 = experiment: as above
HLA-A*01:01 [2] = experiment: IEDB peptide-MHC binding, purified MHC/direct/fluorescence; filed as Kd, often an IC50 or EC50 that approximates it; ≥ and ≤ were set here for values at or beyond the usual limits of such assays; conditions: source organism: SARS-CoV1
HLA-B*58:01 = experiment: as above; conditions: source organism: SARS-CoV1
HLA-A*11:01 = experiment: as above; conditions: source organism: SARS-CoV1
HLA-B*15:01 = experiment: as above; conditions: source organism: SARS-CoV1
HLA-A*02:03 = experiment: IEDB peptide-MHC binding, purified MHC/competitive/radioactivity; filed as Kd, often an IC50 or EC50 that approximates it; ≥ and ≤ were set here for values at or beyond the usual limits of such assays; conditions: source organism: Dengue virus 4 Philippines/H241/1956
HLA-B*53:01 = experiment: as above; conditions: source organism: Dengue virus 3 Martinique/1243/1999
[3] = source organism: SARS coronavirus Tor2
[4] = source organism: Dengue virus 2 Jamaica/1409/1983
[5] = source organism: Dengue virus 2 16681-PDK53
[6] = source organism: Vaccinia virus WR
[7] = source organism: Dengue virus 4 Philippines/H241/1956
[8] = source organism: Dengue virus 1 Brazil/97-11/1997
[9] = source organism: Mammarenavirus guanaritoense
[10] = source organism: Mammarenavirus juninense
[11] = source organism: Mammarenavirus brazilense

Sequence: MFLARAIVF
- Kd (HLA-A*30:02; [3]): 16600 nM
- Kd (HLA-A*01:01 [1]; [3]): ≥ 78100 nM
- Kd (HLA-A*23:01; [3]): 19400 nM
- Kd (HLA-A*24:02; [3]): ≥ 77600 nM
- Kd (HLA-A*29:02; [3]): 8470 nM
- Kd (HLA-A*26:01; [3]): ≥ 34100 nM

Sequence: NEAIMAVGM
- Kd (HLA-B*44:02; [4]): 84.5 nM
- Kd (HLA-B*44:03; [4]): 224 nM

Sequence: NKAWLVHRQW
- Kd (HLA-B*44:02; [5]): 1160 nM
- Kd (HLA-B*44:03; [5]): 4090 nM

Sequence: REAVEDSRFW
- Kd (HLA-B*44:02; [4]): 78.7 nM
- Kd (HLA-B*44:03; [4]): 127 nM

Sequence: RLSFKELLVY
- Kd (HLA-A*30:02; [3]): 226 nM
- Kd (HLA-A*01:01 [1]; [3]): 239 nM
- Kd (HLA-A*23:01; [3]): 14700 nM
- Kd (HLA-A*24:02; [3]): 15700 nM
- Kd (HLA-A*29:02; [3]): 86.2 nM
- Kd (HLA-A*26:01; [3]): 10100 nM

Sequence: SAKTKISVE
- Kd (HLA-B*08:01; [6]): 238 nM

Sequence: SASKSASVY
- Kd (HLA-A*30:02; [3]): 385 nM
- Kd (HLA-A*01:01 [1]; [3]): ≥ 24700 nM
- Kd (HLA-A*23:01; [3]): ≥ 77800 nM
- Kd (HLA-A*24:02; [3]): ≥ 77600 nM
- Kd (HLA-A*29:02; [3]): 4990 nM
- Kd (HLA-A*26:01; [3]): ≥ 20800 nM

Sequence: SENEVKLTIM
- Kd (HLA-B*44:02; [4]): 23.7 nM
- Kd (HLA-B*40:01; [4]): 974 nM
- Kd (HLA-B*44:03; [4]): 377 nM

Sequence: SEVCDHRLM
- Kd (HLA-B*44:02; [7]): 26 nM
- Kd (HLA-B*40:01; [7]): 303 nM
- Kd (HLA-B*44:03; [7]): 76.1 nM

Sequence: SKRMRVDII
- Kd (HLA-B*08:01; [6]): 8230 nM

Sequence: SLEFIRRSL
- Kd (HLA-B*08:01; [6]): 1230 nM

Sequence: SMAMRCVGI
- Kd (HLA-B*08:01; [8]): 5.95 nM

Sequence: SMKSVQNNTV
- Kd (HLA-A*30:02; [9]): 2980 nM
- Kd (HLA-A*01:01 [1]; [9]): ≥ 70400 nM
- Kd (HLA-A*23:01; [9]): ≥ 70000 nM
- Kd (HLA-A*24:02; [9]): ≥ 70300 nM
- Kd (HLA-A*29:02; [9]): ≥ 53100 nM
- Kd (HLA-A*26:01; [9]): ≥ 69700 nM

Sequence: SQILLMRTTW
- Kd (HLA-B*44:02; [8]): 359 nM
- Kd (HLA-B*44:03; [8]): 327 nM

Sequence: SRSTSLSVSL
- Kd (HLA-B*08:01; [4]): 558 nM

Sequence: SSLPSYAAY
- Kd (HLA-A*01:01 [2]): 1620 nM
- Kd (HLA-B*58:01): 286 nM
- Kd (HLA-A*11:01): 390 nM
- Kd (HLA-B*15:01): 52.6 nM
- Kd (HLA-A*30:02; [3]): 0.27 nM
- Kd (HLA-A*23:01; [3]): ≥ 77800 nM
- Kd (HLA-A*24:02; [3]): ≥ 77600 nM
- Kd (HLA-A*29:02; [3]): 1.49 nM
- Kd (HLA-A*26:01; [3]): 5040 nM

Sequence: TEETFKLSY
- Kd (HLA-A*30:02; [3]): 3600 nM
- Kd (HLA-A*01:01 [1]; [3]): 7910 nM
- Kd (HLA-A*23:01; [3]): ≥ 62800 nM
- Kd (HLA-A*24:02; [3]): ≥ 30200 nM
- Kd (HLA-A*29:02; [3]): 141 nM
- Kd (HLA-A*26:01; [3]): 15300 nM

Sequence: VDSSQGSEY
- Kd (HLA-A*30:02; [3]): 1980 nM
- Kd (HLA-A*01:01 [1]; [3]): 892 nM
- Kd (HLA-A*23:01; [3]): ≥ 77800 nM
- Kd (HLA-A*24:02; [3]): ≥ 77600 nM
- Kd (HLA-A*29:02; [3]): 1050 nM
- Kd (HLA-A*26:01; [3]): ≥ 24400 nM

Sequence: VGEEFFHQY
- Kd (HLA-A*30:02; [10]): 6.74 nM
- Kd (HLA-A*01:01 [1]; [10]): 3340 nM
- Kd (HLA-A*23:01; [10]): 251 nM
- Kd (HLA-A*24:02; [10]): 1620 nM
- Kd (HLA-A*29:02; [10]): 2380 nM
- Kd (HLA-A*26:01; [10]): ≥ 77900 nM

Sequence: VGRQEKGKSL
- Kd (HLA-B*08:01; [4]): 3150 nM

Sequence: VIEGPTTCGY
- Kd (HLA-A*30:02; [3]): 26.2 nM
- Kd (HLA-A*01:01 [1]; [3]): 109 nM
- Kd (HLA-A*23:01; [3]): ≥ 38100 nM
- Kd (HLA-A*24:02; [3]): 17000 nM
- Kd (HLA-A*29:02; [3]): 152 nM
- Kd (HLA-A*26:01; [3]): 907 nM

Sequence: VNKFKFGAA
- Kd (HLA-B*08:01; [6]): 158 nM

Sequence: VYRGTTTYKL
- Kd (HLA-A*30:02; [3]): 6880 nM
- Kd (HLA-A*01:01 [1]; [3]): 3910 nM
- Kd (HLA-A*23:01; [3]): 101 nM
- Kd (HLA-A*24:02; [3]): 136 nM
- Kd (HLA-A*29:02; [3]): 216 nM
- Kd (HLA-A*26:01; [3]): 1000 nM

Sequence: WIMKIGIGVL
- Kd (HLA-B*08:01; source organism: Dengue virus 3 Singapore/8120/1995): 287 nM

Sequence: WLSYKVASA
- Kd (HLA-A*02:03): 12.3 nM
- Kd (HLA-B*08:01; [7]): 7.42 nM

Sequence: YCNYTKFWY
- Kd (HLA-A*30:02; [10]): 674 nM
- Kd (HLA-A*01:01 [1]; [10]): 18500 nM
- Kd (HLA-A*23:01; [10]): ≥ 22200 nM
- Kd (HLA-A*24:02; [10]): ≥ 77500 nM
- Kd (HLA-A*29:02; [10]): 2000 nM
- Kd (HLA-A*26:01; [10]): ≥ 77900 nM

Sequence: YFMKFRRVF
- Kd (HLA-A*30:02; [3]): ≥ 22100 nM
- Kd (HLA-A*01:01 [1]; [3]): ≥ 78100 nM
- Kd (HLA-A*23:01; [3]): ≥ 26900 nM
- Kd (HLA-A*24:02; [3]): ≥ 77600 nM
- Kd (HLA-A*29:02; [3]): 12700 nM
- Kd (HLA-A*26:01; [3]): ≥ 49300 nM

Sequence: YQPDTGNYIL
- Kd (HLA-A*23:01; [11]): 1720 nM
- Kd (HLA-A*24:02; [11]): 6000 nM
- Kd (HLA-A*29:02; [11]): 5520 nM

Sequence: YSIPATLLVW
- Kd (HLA-B*53:01): 59.7 nM
- Kd (HLA-A*23:01; source organism: Dengue virus 3 Martinique/1243/1999): 70.4 nM
